Experimental data taken from patent US5525503A, “Signal transduction via CD28” (priority 1993, dated 1996).

What was measured:
[1] = system: PI 3-kinase; assay: CD28-associated PI 3-kinase lipid kinase activity of CD28 mutants in transfected Cos-1 cells after anti-CD28 crosslinking (TLC, laser densitometry); assay type: cell-based; conditions: relative to wild type CD28
From the text: FIG. 8 is a photograph of TLC analysis of lipid products following CD28 crosslinking. Cos-1 cells were transfected with wild type CD28 (WT) (lane 2), Tyr-191 to Phe mutant (F191) (lane 3), Met-194 to Cys (C194) (lane 4), and Tyr-209 to Phe (F209) (lane 5). Transfected cells were then subjected to anti-CD28 crosslinking, immunoprecipitation and lipid kinase analysis. Non-transfected cells served as a negative control (lane 1), while immunoprecipitation with anti-p85 antibody served as a positive control (lane 6).
FIG. 9 is a bar graph showing relative autoradiographic intensities of PI-P spots detected in the TLC analysis shown in FIG. 8. Intensity was quantitated by laser densitometric scanning.
The lipid kinase reaction was carried out on beads using soybean phosphatidyl inositol liposomes and γ32P-ATP (20 μCi). Lipids were then extracted using chloroform and methanol (1:1) and separated by thin layer chromatography on a silica gel plate precoated with potassium oxalate using a basic system (chloroform, methanol, water, ammonium hydroxide (60:47:11.3:2), as described in Whitman et al., supra and Auger et al., supra. The corresponding TLC spots were cut, counted for Cherenkov counts and extracted with a solution containing methylamine, methanol and n-butanol (57.7 ml of 25% methylamine in water, 61.6 ml of methanol and 15.6 ml of n-butanol) for 1 h at 53° C. This method also results in the deacylation of lipids. The samples were dried under vacuum and reconstituted in water. […] The deacylated phospholipids were analyzed on a Beckman HPLC system using an ion exchange column and a gradient of NH4 HPO4. ^3 H-PI-4P and adenosine diphosphate were used as internal standards.
Amino acid residues at positions Tyr-191, Met-194 and Tyr-209 were mutated using a site-directed mutagenesis system from Promega (Madison, Wis.). […] Cells were assessed for cell surface expression of CD28 by fluorescence-activated cell sorting (FACS) (EPICS, Coulter Immunology, Hialeah, Fla.). […]

[2] = biological target: association of PI 3-kinase with CD28 (Homo sapiens, UniProt P27986); assay: Peptide competition: displacement of PI 3-kinase from CD28 (anti-CD28 immunoprecipitation, anti-p85 immunoblotting); assay type: binding; conditions: peptide 10-50 μM; longer exposure of autoradiograph
association of PI 3-kinase with CD28, sequence (P27986 whole entry): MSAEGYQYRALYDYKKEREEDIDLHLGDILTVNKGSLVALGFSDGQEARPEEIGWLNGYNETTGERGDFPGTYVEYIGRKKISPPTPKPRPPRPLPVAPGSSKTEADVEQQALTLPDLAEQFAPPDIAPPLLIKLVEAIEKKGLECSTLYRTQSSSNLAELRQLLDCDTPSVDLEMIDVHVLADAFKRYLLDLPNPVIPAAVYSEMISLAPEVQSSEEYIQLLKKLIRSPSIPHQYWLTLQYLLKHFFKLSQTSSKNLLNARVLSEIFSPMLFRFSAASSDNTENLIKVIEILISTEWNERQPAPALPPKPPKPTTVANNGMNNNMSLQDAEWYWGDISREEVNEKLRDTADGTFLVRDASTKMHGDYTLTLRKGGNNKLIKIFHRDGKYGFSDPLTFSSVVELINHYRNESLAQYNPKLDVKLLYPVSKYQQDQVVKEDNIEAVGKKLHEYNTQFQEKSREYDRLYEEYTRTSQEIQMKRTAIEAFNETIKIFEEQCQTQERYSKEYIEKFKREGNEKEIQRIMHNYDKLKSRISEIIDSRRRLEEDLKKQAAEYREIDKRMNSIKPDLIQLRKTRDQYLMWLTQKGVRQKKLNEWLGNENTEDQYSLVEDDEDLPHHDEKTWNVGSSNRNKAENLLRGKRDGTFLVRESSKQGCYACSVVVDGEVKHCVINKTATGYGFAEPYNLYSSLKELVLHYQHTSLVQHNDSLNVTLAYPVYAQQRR

[3] = system: CD28 signalling; conditions: cited from earlier work

Compound | effect of CD28 mutation on associated PI 3-kinase (TLC, in words) [1] | sensitivity of CD28 signalling to the reagent [3] | also measured
C194: CD28 with Met-194 mutated to Cys by site-directed mutagenesis | partial effect in reducing the level of associated kinase |  | reduction of CD28-associated PI 3-kinase activity (laser densitometry of PI-P spots) [1]: approximately 40%
CSCC[C@H](NC(=O)[C@@H]1CCCN1C(=O)[C@H](CCSC)NC(=O)[C@H](Cc1ccc(OP(=O)(O)O)cc1)NC(=O)[C@H](CCC(=O)O)NC(=O)[C@H](CCC(=O)O)NC(=O)[C@@H](N)CCC(=O)O)C(=O)N[C@@H](CCC(=O)O)C(=O)N[C@@H](CC(=O)O)C(=O)N[C@@H](CC(C)C)C(=O)N[C@@H](Cc1ccc(O)cc1)C(=O)N[C@@H](CC(C)C)C(=O)O [Glu-Glu-Glu-Tyr-Met-Pro-Met-Glu-Asp-Leu-Tyr-Leu] |  |  | reduction of the level of CD28-associated p85 PI 3-kinase [2]: 60-80%
cholera toxin |  | resistant | 
F209: CD28 with distal Tyr-209 mutated to Phe, control mutant | no effect relative to the wild type control |  | 
C=CC[C@@H]1/C=C(\C)C[C@H](C)C[C@H](OC)[C@H]2O[C@@](O)(C(=O)C(=O)N3CCCC[C@H]3C(=O)O[C@H](/C(C)=C/[C@@H]3CC[C@@H](O)[C@H](OC)C3)[C@H](C)[C@@H](O)CC1=O)[C@H](C)C[C@@H]2OC [FK506] |  | resistant | 
